B1: ATP-sensitive inward rectifier potassium channel 10 (Homo sapiens), P78508 (parent)
chain: MTSVAKVYYSQTTQTESRPLMGPGIRRRRVLTKDGRSNVRMEHIADKRFLYLKDLWTTFIDMQWRYKLLLFSATFAGTWFLFGVVWYLVAVAHGDLLELDPPANHTPCVVQVHTLTGAFLFSLESQTTIGYGFRYISEECPLAIVLLIAQLVLTTILEIFITGTFLAKIARPKKRAETIRFSQHAVVASHNGKPCLMIRVANMRKSLLIGCQVTGKLLQTHQTKEGENIRLNQVNVTFQVDTASDSPFLILPLTFYHVVDETSPLKDLPLRSGEGDFELVLILSGTVESTSATCQVRTSYLPEEILWGYEFTPAISLSASGKYIADFSLFDQVVKVASPSGLRDSTVRYGDPEKLKLEESLREQAEKEGSALSVRISNV

Variants of: B1
Settings: with MAGI1, A0A8I3NPD4
Chain of MAGI1, A0A8I3NPD4 (A0A8I3NPD4 entry or part of it): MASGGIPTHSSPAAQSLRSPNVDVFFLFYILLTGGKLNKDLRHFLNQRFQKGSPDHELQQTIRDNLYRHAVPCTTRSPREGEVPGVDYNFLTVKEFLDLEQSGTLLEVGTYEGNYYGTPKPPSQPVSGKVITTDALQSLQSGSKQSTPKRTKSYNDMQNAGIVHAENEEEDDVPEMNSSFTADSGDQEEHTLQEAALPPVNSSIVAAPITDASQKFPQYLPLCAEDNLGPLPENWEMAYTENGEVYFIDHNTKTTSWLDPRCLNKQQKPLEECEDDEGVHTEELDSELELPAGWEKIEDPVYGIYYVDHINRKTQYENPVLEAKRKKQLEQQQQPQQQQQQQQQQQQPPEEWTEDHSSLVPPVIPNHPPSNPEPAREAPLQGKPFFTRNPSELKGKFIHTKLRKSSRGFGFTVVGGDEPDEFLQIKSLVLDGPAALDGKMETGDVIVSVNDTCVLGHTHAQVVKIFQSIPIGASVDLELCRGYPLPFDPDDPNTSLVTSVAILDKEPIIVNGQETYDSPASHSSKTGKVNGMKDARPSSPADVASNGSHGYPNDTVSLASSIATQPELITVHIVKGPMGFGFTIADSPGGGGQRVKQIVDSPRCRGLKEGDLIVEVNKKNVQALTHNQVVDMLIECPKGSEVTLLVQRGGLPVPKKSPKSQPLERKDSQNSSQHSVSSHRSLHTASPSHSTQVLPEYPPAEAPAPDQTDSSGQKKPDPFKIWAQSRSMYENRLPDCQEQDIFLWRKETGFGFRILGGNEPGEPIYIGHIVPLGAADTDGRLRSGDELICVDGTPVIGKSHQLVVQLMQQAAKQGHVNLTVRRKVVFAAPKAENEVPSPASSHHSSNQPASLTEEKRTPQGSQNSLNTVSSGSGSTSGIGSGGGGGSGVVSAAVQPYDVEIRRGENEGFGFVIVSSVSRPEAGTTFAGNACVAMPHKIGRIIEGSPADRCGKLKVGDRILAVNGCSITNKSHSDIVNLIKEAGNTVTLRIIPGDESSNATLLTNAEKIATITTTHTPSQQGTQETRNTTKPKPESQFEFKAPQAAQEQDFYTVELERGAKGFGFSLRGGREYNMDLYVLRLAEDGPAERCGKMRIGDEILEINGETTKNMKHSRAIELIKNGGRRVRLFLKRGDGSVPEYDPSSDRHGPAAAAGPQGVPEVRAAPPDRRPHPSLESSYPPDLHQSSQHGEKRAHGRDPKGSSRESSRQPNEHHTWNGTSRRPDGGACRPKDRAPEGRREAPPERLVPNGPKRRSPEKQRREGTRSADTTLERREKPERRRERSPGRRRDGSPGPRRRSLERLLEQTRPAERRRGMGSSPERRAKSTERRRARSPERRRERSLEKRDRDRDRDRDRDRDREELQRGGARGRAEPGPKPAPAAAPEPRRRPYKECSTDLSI

Variant	effect of a mutation on the interaction
MTSVAKVYYSQTTQTESRPLMGPGIRRRRVLTKDGRSNVRMEHIADKRFLYLKDLWTTFIDMQWRYKLLLFSATFAGTWFLFGVVWYLVAVAHGDLLELDPPANHTPCVVQVHTLTGAFLFSLESQTTIGYGFRYISEECPLAIVLLIAQLVLTTILEIFITGTFLVKIARPKKRAETIRFSQHAVVASHNGKPCLMIRVANMRKSLLIGCQVTGKLLQTHQTKEGENIRLNQVNVTFQVDTASDSPFLILPLTFYHVVDETSPLKDLPLRSGEGDFELVLILSGTVESTSATCQVRTSYLPEEILWGYEFTPAISLSASGKYIADFSLFDQVVKVASPSGLRDSTVRYGDPEKLKLEESLREQAEKEGSALSVRISNV [A167V]	decreasing interaction
